Results from patent US9840539B2, “High affinity digoxigenin binding proteins” (UNIVERSITY OF WASHINGTON THROUGH ITS CENTER FOR …, priority 2013, dated 2017).
Entries after “also recorded” stand apart in the source; their conditions may differ. Like-named read-outs stand apart in the source and are kept apart here.

How the values were obtained:
[1] = Yeast surface display flow cytometry binding assay, DIG-RNase-biotin and SAPE; conditions: for compensated mean binding (PE) signal on yeast: 2.7 μM DIG-RNase-biotin pre-incubated with SAPE
Source text: (§1) DIG10.1a-derived library DNA was sequenced in paired-end mode on an Illumina MiSeq.
(§2) General experimental methods. Detailed procedures for the syntheses of DIG-BSA-biotin, DIG-RNase-biotin, DIG-PEG3-biotin, and DIG-PEG3-Alexa488, as well as protein expression, purification, and crystallization, cloning, and mutagenesis methods are given in Supplementary Methods. Details about fluorescence polarization binding assays, gel filtration analysis, and protein stability measurements are also provided in Supplementary Methods. Yeast surface display. Designed proteins were tested for binding using yeast-surface display^40. […] DIG binding was assessed by quantifying the phycoerythrin (PE) fluorescence of the displaying yeast population following incubation with DIG-BSA-biotin, DIG-RNase-biotin, or DIG-PEG3-biotin, and streptavidin-phycoerythrin (SAPE). In a typical experiment using DIG-BSA-biotin or DIG-RNase-biotin, cells were resuspended in a premixed solution of PBSF (PBS+1 g/L of BSA) containing a 1:100 dilution of anti-cmyc FITC, […] DIG-BSA-biotin or DIG-RNase biotin, and 664 nM SAPE for 2-4 hr incubation at 4° C. Cellular fluorescence was monitored on an Accuri C6 flow cytometer using a 488 nm laser for excitation and a 575 nm band pass filter for emission. Phycoerythrin fluorescence was compensated to minimize bleed-over contributions from the FITC channel. Competition assays with free digoxigenin were performed as above except that between 750 μM and 1.5 mM of digoxigenin was added to each labeling reaction mixture. Full details are given in Supplementary Methods.
(§3) Yeast surface display assays. Designed proteins were tested for binding using yeast-surface display^23. Designs DIG1-17/pET29FLAG, DigA16/pET29FLAG, and 3hk4/pET29FLAG were subcloned into the NdeI/XhoI cloning sites of pETCON^24. Designs and control proteins in pETCON were transformed into EBY100 cells using lithium acetate and polyethylene glycol^25 with dH2O instead of single stranded carrier DNA and were plated on selective media (C -ura -trp). Freshly transformed cells were inoculated into 1 mL of SDCAA media^23 and grown at 30° C., 200 rpm. After ˜12 hrs, 1e7 cells were collected by centrifugation at 1,700×g for 3 min and resuspended in 1 mL of SGCAA media to induce protein expression. Following induction for 24-48 hrs at 18° C., 4e6 cells were collected by centrifugation, and washed twice by incubation with PBSF (PBS supplemented with […]) for 10 min at room temperature
(§4) DIG binding was assessed by quantifying the phycoerythrin (PE) fluorescence of the displaying yeast population following incubation with DIG-BSA-biotin, DIG-RNase-biotin, or DIG-PEG3-biotin, and streptavidin-phycoerythrin (SAPE; Invitrogen, Carlsbad, Calif.). In a typical experiment using DIG-BSA-biotin or DIG-RNase-biotin. 4e6 cells were resuspended in 50 μL of a premixed solution of PBSF containing a 1:100 dilution of anti-cmyc FITC, 2.66 μM DIG-BSA-biotin or DIG-RNase biotin, and 664 nM SAPE. Following a 2-4 hr incubation at 4° C. in the dark on a rotator, cells were collected by centrifugation at 1,700×g for 3 min and washed with 200 μL of PBSF at 4° C. Cell pellets were resuspended in 200 μL of ice-cold PBSF immediately before use. Cellular fluorescence was monitored on an Accuri C6 flow cytometer using a 488 nm laser for excitation and a 575 nm band pass filter for emission. Phycoerythrin fluorescence was compensated to minimize bleed-over contributions from the FITC fluorescence channel. […]

[2] = Fluorescence polarization equilibrium binding assay with purified protein; conditions: for affinity for DIG-PEG3-Alexa488 by fluorescence polarization (in words): purified protein in solution
Description: Proteins were expressed in E. coli Rosetta 2 (DE3) cells with a C-terminal TEV protease cleavable His6 tag for biochemical assays. For crystallographic analysis of DIG10 variants, a 12-amino acid structurally disordered C-terminus deriving from the scaffold protein 1z1s was replaced directly with a His6 tag. Binding affinities were determined by equilibrium fluorescence polarization^30 on a SpectraMax M5e microplate reader by monitoring the anisotropy of DIG-conjugated Alexa488 as a function of protein concentration. Equilibrium fluorescence polarization competition assays were performed by examining the effect of increasing concentrations of unlabeled DIG, digitoxigenin, progesterone, and β-estradiol on the anisotropy of designed protein-DIG-conjugated Alexa488 complex.
Fluorescence polarization binding assays. Fluorescence polarization-based affinity measurements of designs and their evolved variants were performed as described^46 using Alexa488-conjugated DIG (DIG-PEG3-Alexa488). Fluorescence anisotropy (r) was measured in 96-well plate format on a SpectraMax M5e microplate reader (Molecular Devices) with λex=485 nM and λem=538 nM using a 515 nm emission cutoff filter. Fluorescence polarization equilibrium competition binding assays were used to determine the binding affinities of DIG10.3 and its variants for unlabeled digoxigenin, digitoxigenin, progesterone, β-estradiol, and digoxin. The inhibition constant for each protein-ligand interaction, Ki, was calculated from the measured total unlabeled ligand producing 50% binding signal inhibition (I50) and the Kd of the protein-label interaction according to a model accounting for receptor-depletion conditions^46.
Fluorescence polarization equilibrium binding assays. Fluorescence polarization-based affinity measurements of designs and their evolved variants were performed as noted previously^47 using Alexa488-conjugated DIG (DIG-PEG3-Alexa488). In a typical experiment, the concentration of DIG-PEG3-Alexa488 was fixed below the Kd of the interaction being monitored and the effect of increasing concentrations of protein on the fluorescence anisotropy of Alexa488 was determined. Fluorescence anisotropy (r) was measured in 96-well plate format on a SpectraMax M5e microplate reader (Molecular Devices) with λex=485 nM and λem=538 nM using a 515 nm emission cutoff filter. In all experiments, PBS (pH 7.4) was used as the buffer system and the temperature was 25° C. DIG-PEG3-Alexa488 solutions were prepared from a 1 mM stock in DMSO. Equilibrium dissociation constants (Kd) were determined by fitting plots of the anisotropy averaged over a period of 20 to 40 min after reaction initiation versus protein concentration as described previously^47. […]

[3] = Yeast surface display flow cytometry binding assay, DIG-BSA-biotin and SAPE; conditions: for compensated mean binding (PE) signal on yeast: 2.7 μM DIG-BSA-biotin pre-incubated with SAPE; for binding in presence of unlabeled DIG competitor: DIG-BSA or DIG-RNase label, ˜1 mM unlabeled DIG
Source text: as §1, §2, §3, §4

[4] = Circular dichroism spectroscopy, temperature melting; format: physicochemical
Description: Circular dichroism spectroscopy. Circular dichroism spectra were collected on an Aviv 62A DS spectrometer. Samples were prepared in PBS. Fixed-temperature scans were conducted at 25° C. All proteins were stable <°60 C.

Row | Molecule | compensated mean binding (PE) signal on yeast [1] | affinity for DIG-PEG3-Alexa488 by fluorescence polarization (in words) [2] | compensated mean binding (PE) signal on yeast [3] | binding in presence of unlabeled DIG competitor [3] | thermal stability by CD temperature melting [4] | thermal stability by CD temperature melting ([4]; PBS) | binding (PE) signal, stringent multistep labeling ([1]; 5 pM DIG-RNase, then SAPE) | increase of binding affinity relative to DIG10 ([2]; after one round of mutagenesis and selections) | binding (PE) signal in presence of unlabeled DIG competitor ([1]; 2.7 μM DIG-RNase-biotin, 790 μM unlabeled DIG)
1 | DIG10: computationally designed digoxigenin binding polypeptide from scaffold 1z1s, SEQ ID NO: 12 (protein, (130)..(141) amino acids are optionally absent) MNAKEIVVHSLRLLENGDARGWCDLFHPEGVLEYPYAPPGHKTRFEGRETIWAHMRLFPEYVTVRFTDVQFYETADPDLAIGEFHGDGVHTVSGGKLAADYISVLRTRDGQILLYRVFFNPLRVLEALGGVEAAAKIVQGA | strong binding signals | low to mid micromolar range | strong binding signals | reduced to background levels | – | – | – | – | –
2 | DIG10.2: DIG10.1a variant with A37P and H41Y, SEQ ID NO: 14 (protein, (130)..(141) amino acids are optionally absent) MNAKEIVVHALRLLENGDARGWCDLFHPEGVLEYPYPPPGYKTRFEGRETIWAHMRLFPEYMTIRFTDVQFYETADPDLAIGEFHGDGVHTVSGGKLAADYISVLRTRDGQILLYRLFFNPLRVLEPLGGVEAAAKIVQGA | – | – | – | – | stable at temperatures below 60 °C | – | – | – | –
3 | 1z1s: scaffold, hypothetical protein of unknown function from Pseudomonas aeruginosa, SEQ ID NO: 24 (protein) MNAKEILVHSLRLLENGDARGWCDLFHPEGVLEFPYAPPGWKTRFEGRETIWAHMRLFPEHLTVRFTDVQFYETADPDLAIGEFHGDGVATVSGGKLAQDYISVLRTRDGQILLYRDFWNPLRHLEALGGVEAAAKIVQGA | does not show a binding signal | does not bind | does not bind to either label | – | – | stable at temperatures below 60 °C | – | – | –
4 | DIG10.1a: affinity matured DIG10 variant with S10A, V62M, V64I, V117L, A127P; SEQ ID NO: 13 (protein, (130)..(141) amino acids are optionally absent) MNAKEIVVHALRLLENGDARGWCDLFHPEGVLEYPYAPPGHKTRFEGRETIWAHMRLFPEYMTIRFTDVQFYETADPDLAIGEFHGDGVHTVSGGKLAADYISVLRTRDGQILLYRLFFNPLRVLEPLGGVEAAAKIVQGA | – | – | – | – | stable at temperatures below 60 °C | – | slightly higher signal; also recorded: strong binding signals | 75 fold | –
5 | DIG5: computationally designed digoxigenin binding polypeptide from scaffold 1z1s, SEQ ID NO: 10 (protein, (130)..(141) amino acids are optionally absent) MNAKEILVHSLRLLENGDARGWCDLFHPEGVLEFPYAPPGWKTRFEGRETIWAHMRLHPEHVTVRFTDVQFYETADPDLAIGEYHGDGVVTVSGGKYAADFITVLRTRDGQILLYRVFWNPLRALEAAGGVEAAAKIVQGA | strong binding signals | low to mid micromolar range | slightly above background levels | reduced to background levels | – | – | – | – | reduced to that of the negative control ZZ(−)
